Experimental data from patent publication US5710126A, “T cell epitopes of ryegrass pollen allergen” (ImmuLogic Pharmaceutical Corporation, priority 1995, dated 1998).

Assays:
human IgE = experiment: Direct ELISA of human IgE binding to coated antigen
Procedure: (§1) To examine the importance of Lol p V, both direct and competition ELISA assays were performed. In the direct ELISA, 100 μl of 10 μg/ml of antigen in Phosphate Buffered Saline, pH 7.4 (PBS) was used to coat Immulon II (Dynatech, Chantilly, Va.) 96 well plates for 4 hours at room temperature (RT) or overnight (O/N) at 4° C. In between each step the plates were washed 3× with PBS-T. The excess coating antigen(s) was removed and the wells blocked with 300 μl/well 0.5% gelatin+1 mg/ml PVP in PBS for 1 hour at RT. Serially diluted patient plasma or the diluent PBS+0.05% Tween^-20 was incubated in at 100 μl/well in duplicate wells overnight at 4° C. […] Plates were read on a MR7000 plate reader (Dynatech, Chantilly, Va.) with a 450 nm filter. The absorbance levels of duplicate wells were averaged. The results were graphed as absorbance vs. dilution. […] The results are plotted as the absorbance vs. the log of the concentration of competing antigen.
For the direct ELISA, wells were coated with either soluble pollen extract (SPE) of ryegrass pollen or rLol p V (purified native Lol p V may have a small amount of Lol p I; use of recombinant material assures that the IgE binding is only to Lol p V ) and human IgE antibody binding to these antigens was analyzed. […]

[1] = tested on: T cell lines from grass-allergic patients primed in vitro with affinity purified Lol p V; experiment: T cell proliferation (tritiated thymidine uptake) of Lol p V-primed T cell lines restimulated with peptides or proteins; format: cell-based, human; conditions: one allergic patient; results not shown; 2-50 μg/ml antigen
Description: As discussed in Example 2, human T cell stimulating activity can be tested by culturing T cells obtained from an individual sensitive to Lol p V allergen, (i.e., an individual who has an IgE mediated immune response to Lol p V allergen) with a peptide derived from the allergen and determining whether proliferation of T cells occurs in response to the peptide as measured, e.g., by cellular uptake of tritiated thymidine. Stimulation indices for responses by T cells to peptides can be calculated as the maximum CPM in response to a peptide divided by the control CPM. A stimulation index (S.I.) equal to or greater than two times the background level is considered "positive". […]
In addition, preferred peptides have a positivity index (P.I.) of at least about 60, more preferably about 100, more preferably at least about 200 and most preferably at least about 300. The positivity index for a peptide is determined by multiplying the mean T cell stimulation index by the percent of individuals, in a population of individuals sensitive to ryegrass pollen (e.g., preferably a population of at least 15 individuals,more preferably a population of at least 30 individuals or more), who have a T cell stimulation index to such peptide of at least 2.0. […]
This amount of priming antigen was determined to be optimal for the activation of T cells from most grass-allergic patients. […]

[2] = tested on: human basophil mediator release; experiment: Histamine release assay on whole blood of a ryegrass allergic individual; format: cell-based; conditions: one ryegrass allergic individual; 37° C., 30 minutes; FIG. 12
Procedure: A histamine release assay was performed on one ryegrass allergic individual, using Lol p SPE and rLol p V as the added antigens. This assay is a measure of IgE reactivity through human basophil mediator release, and it is based on the detection of an acylated derivative of histamine using a specific monoclonal antibody (Morel, A. M. and Delaage, M. A.; 1988, J. Allergy Clin. Immunol. 82:646-654). The reagents for this radioimmunoassay are sold as a kit by Amac Inc. (Westbrook, Me.). Whole heparinized blood drawn from a grass allergic individual and then 200 μl aliquots were mixed with an equal amount of the grass antigens SPE and rLol p V at various concentrations or the diluent, PACM buffer (25 mM PIPES, 100 mM NaCl, 5 mM KCL, 4 mM CaCl2, 1 mM MgCl2, 0.003% HSA, pH7.3) in 1.5 ml polypropylene. The release reactions were carried out at 37° C. for 30 minutes. After this incubation, the samples were centrifuged at 1500 RPM for 3 minutes and the supernatants removed. For the total histamine release, 0.1 ml of blood was added to 0.9 ml of PACM buffer, vortexed, and then boiled for 3 minutes. The samples were spun at 13000 RPM and the supernatant removed for analysis. Duplicate samples were used to measure total release. All of the supernatants are diluted 1:4 in acylation buffer and the remainder of the assay is performed according to the manufacturer's instructions.

specific IgE antibody = conditions: immunoblotting; Lol p V isoforms; WO 93/04174; cited from earlier work
[3] = tested on: human IgE binding to ryegrass pollen SPE; experiment: Competition ELISA for IgE binding to ryegrass pollen SPE; conditions: IgE source PHP-A or individual patient plasma; FIGS. 10 and 11
Procedure: as §1
In the competition assay, ELISA wells were coated with ryegrass pollen SPE and then allergic patient IgE binding was measured in the presence of competing ryegrass pollen SPE, purified native Lol p V, or rLol p V. The source of allergic IgE in this assay was PHP-A (FIG. 10) or individual patient plasma (FIG. 11). […]

B1: rLol p V: bacterially expressed recombinant Lol p V encoded by clone 12R, with His6 sequence, purified on Ni chelating column (protein)
chain: ADAGYTPAAAATPATPAATPAAAGGKATTDEQKLLEDVNAGFKAAVAAAANAPPADKFKIFEAAFSESSKGLLATSAAKAPGLIPKLDTAYDVAYKAAEGATPEAKYDAFVTALTEALRVIAGALEVHAVKPATEEVPAAKIPTGELQIVDKIDAAFKIAATAANAAPTNDKFTVFESAFNKALNECTGGAYETYKFIPSLEAAVKQAYAATVAAAPEVKYAVFEAALTKAITAMTQAQKAGKPAAAAATGAATVATGAATAAAGAATAAAGGYKA
IgE binding in direct ELISA (human IgE; IgE source PHP-A, PHP-B or four individual patients, FIGS. 6-9): high IgE binding
IgE binding in direct ELISA to Lol p V peptides and protein (human IgE; IgE source PHP-B, preliminary assay, FIGS. 13a and 13b): very high IgE binding
T cell proliferative response of one patient [1]: responds well
histamine release [2]: strong histamine release over a wide concentration range

B2: purified native Lol p V: Lol p V allergen affinity purified from ryegrass pollen extract on a mAb 1B9 column (protein)
chain: ADAGYTPAAAATPATPAATPAAAGGKATTDEQKLLEDVNAGFKAAVAAAANAPPADKFKIFEAAFSESSKGLLATSAAKAPGLIPKLDTAYDVAYKAAEGATPEAKYDAFVTALTEALRVIAGALEVHAVKPATEEVPAAKIPTGELQIVDKIDAAFKIAATAANAAPTNDKFTVFESAFNKALNECTGGAYETYKFIPSLEAAVKQAYAATVAAAPEVKYAVFEAALTKAITAMTQAQKAGKPAAAAATGAATVATGAATAAAGAATAAAGGYKA
modifications: The 5 proline residues at the N-terminus were found to be all hydroxyprolines
T cell proliferative response of one patient [1]: responds well

B3: Lol p V: major Lolium perenne L. ryegrass pollen allergen, Group V allergen (protein)
chain: ADAGYTPAAAATPATPAATPAAAGGKATTDEQKLLEDVNAGFKAAVAAAANAPPADKFKIFEAAFSESSKGLLATSAAKAPGLIPKLDTAYDVAYKAAEGATPEAKYDAFVTALTEALRVIAGALEVHAVKPATEEVPAAKIPTGELQIVDKIDAAFKIAATAANAAPTNDKFTVFESAFNKALNECTGGAYETYKFIPSLEAAVKQAYAATVAAAPEVKYAVFEAALTKAITAMTQAQKAGKPAAAAATGAATVATGAATAAAGAATAAAGGYKA
ryegrass pollen sensitive patients possessing specific IgE antibody that bound (specific IgE antibody): 80%
competition for IgE binding to ryegrass pollen SPE [3]: a significant portion of IgE against Lol p SPE is specific for Lol p V
